Our source for the peptide exchange yield values is patent publication US20210275653A1.

This assay addresses HLA-A*24 MHC class I molecule (peptide-receptive after UV-ligand exchange) (human). The assay can be described thus: UV-ligand exchange, anti-b2m ELISA; grade of peptide exchange yield (>=10% = +; >=20% = ++; >=50 = +++; >=75% = ++++). Background: In an ELISA, binding on a coated surface is turned into a signal by an enzyme label.

B1: peptide … (SEQ ID No. 31) (peptide)
peptide: AYTSPPSFF
In turn, B1 displayed a peptide exchange yield of 50 to 75%.

B2: peptide … (SEQ ID No. 41) (peptide)
peptide: RYLQKIEEF
In turn, B2 showed a peptide exchange yield of 50 to 75%.

B3: peptide … (SEQ ID No. 42) (peptide)
peptide: TYIGQGYII
In the case of B3, the peptide exchange yield fell in the range of 50 to 75%.

B4: peptide … (SEQ ID No. 58) (peptide)
peptide: GYIDKVRQL
As for B4, the peptide exchange yield was in the range of 20 to 50%.

B5: peptide … (SEQ ID No. 54) (peptide)
peptide: AYSEKVTEF
B5 showed a peptide exchange yield of 50 to 75%.

B6: peptide … (SEQ ID No. 32) (peptide)
peptide: PYQLNASLFTF
In turn, B6 yielded a peptide exchange yield greater than 75%.

B7: peptide … (SEQ ID No. 56) (peptide)
peptide: LFHPEDTGQVF
Take B7: the peptide exchange yield was 20 to 50%.

B8: peptide … (SEQ ID No. 28) (peptide)
peptide: YYAKEIHKF
As to B8, the peptide exchange yield was greater than 75%.

B9: peptide … (SEQ ID No. 29) (peptide)
peptide: RYGSPINTF
For B9, the peptide exchange yield is 50 to 75%.

B10: peptide … (SEQ ID No. 48) (peptide)
peptide: AWAPKPYHKF
B10 returned a peptide exchange yield of 50 to 75%.

B11: peptide … (SEQ ID No. 35) (peptide)
peptide: IYTRVTYYL
B11 gave a peptide exchange yield of 20 to 50%.

B12: peptide … (SEQ ID No. 45) (peptide)
peptide: RYFKTPRKF
For the molecule B12, the peptide exchange yield is 20 to 50%.

B13: peptide … (SEQ ID No. 36) (peptide)
peptide: RYMWINQEL
On to B13, for which the peptide exchange yield fell in the range of 50 to 75%.

B14: peptide … (SEQ ID No. 43) (peptide)
peptide: AYIKNGQLF
Consider B14, for which the peptide exchange yield fell in the range of 50 to 75%.

B15: peptide … (SEQ ID No. 34) (peptide)
peptide: AFSPDSHYLLF
B15 showed a peptide exchange yield of 50 to 75%.

B16: peptide … (SEQ ID No. 55) (peptide)
peptide: LYFEKGEYF
For the molecule B16, the peptide exchange yield is greater than 75%.

B17: peptide … (SEQ ID No. 59) (peptide)
peptide: IYPDVTYAF
Regarding B17, the peptide exchange yield is 50 to 75%.

B18: peptide … (SEQ ID No. 24) (peptide)
peptide: SYNDALLTF
B18 yielded a peptide exchange yield of 50 to 75%.

B19: peptide … (SEQ ID No. 47) (peptide)
peptide: SYTPVLNQF
Take B19: the peptide exchange yield was greater than 75%.

B20: peptide … (SEQ ID No. 33) (peptide)
peptide: QYGKDFLTL
For the molecule B20, the peptide exchange yield fell in the range of 50 to 75%.

B21: peptide … (SEQ ID No. 44) (peptide)
peptide: VYNTVSEGTHF
Consider B21, for which the peptide exchange yield is 50 to 75%.

B22: peptide … (SEQ ID No. 25) (peptide)
peptide: IYEPYLAMF
Consider B22, for which the peptide exchange yield was 50 to 75%.

B23: peptide … (SEQ ID No. 27) (peptide)
peptide: GYLQGLVSF
As for B23, the peptide exchange yield is greater than 75%.

B24: peptide … (SEQ ID No. 26) (peptide)
peptide: RYADDTFTPAF
Regarding B24, the peptide exchange yield was 50 to 75%.

B25: peptide … (SEQ ID No. 30) (peptide)
peptide: SYSPAHARL
Take B25: the peptide exchange yield lay in the range of 50 to 75%.
